Source: the supplement of paper PMC10724198
± gives the standard deviation of the averaged measurements.

Assays:
[1] = test system: Saccharomyces cerevisiae; assay: protein stability index of tFT-peptide fusion (C-terminal peptide) (PSI (0-1 scale)); higher = more stable (slower turnover)
Method: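 MPS profiling in S. cerevisiae of the tFT-X12 degron library: putative degron peptides plus stable controls, 12 aa, fused to the C-terminus of a sfGFP-mCherry timer. Cells are FACS-sorted into 8 mCherry/sfGFP bins and deep-sequenced. PSI runs from 0 (unstable) to 1 (stable). Backgrounds are wild type, das1Δ and doa10Δ at 30 °C, and wild type, das1Δ, cdc34-1 and cdc53-1 at 37 °C; 2-3 technical replicates each.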

[2] = test system: Saccharomyces cerevisiae; assay: as above; conditions: genetic background: wild type; temperature: 30 C
[3] = genetic background: cdc34-1, temperature: 37 C
[4] = genetic background: cdc53-1, temperature: 37 C
[5] = genetic background: das1 deletion, temperature: 30 C
[6] = genetic background: das1 deletion, temperature: 37 C
[7] = genetic background: doa10 deletion, temperature: 30 C
[8] = genetic background: wild type, temperature: 30 C
[9] = genetic background: wild type, temperature: 37 C
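Also: PSI is a weighted mean of sequencing reads over stability bins, variants kept only with over 10 reads, mCherry proximal and sfGFP distal, peptide attached via GGGS linker.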

Sequence	protein stability index [1, 3]	protein stability index [1, 4]	protein stability index [1, 5]	protein stability index [1, 6]	protein stability index [1, 7]	protein stability index [1, 8]	protein stability index [1, 9]	protein stability index [2]
VVCLCEYRLHIF	0.203 ± 0.029	0.274 ± 0.031	0.214 ± 0.034	0.399 ± 0.011	0.0658 ± 0.017	0.0733 ± 0.033	0.0928 ± 0.0073	0.0917 ± 0.047
VVFSLLLWLFIS	0.256 ± 0.022	0.405 ± 0.024	0.316 ± 0.047	0.47 ± 0.0075	0.161 ± 0.003	0.168 ± 0.018	0.194 ± 0.0057	0.216 ± 0.029
VVGLSLLFSGGV	0.687 ± 0.011	0.755 ± 0.021	0.644 ± 0.015	0.7583 ± 0.0016	0.662 ± 0.025	0.6572 ± 0.0032	0.727 ± 0.0093	0.694 ± 0.021
VVQCRFPTPCVV	0.486 ± 0.035	0.485 ± 0.033	0.372 ± 0.03	0.5335 ± 0.0022	0.349 ± 0.0096	0.376 ± 0.027	0.496 ± 0.022	0.476 ± 0.013
VVSLGGWCLYIY	0.423 ± 0.061	0.4605 ± 0.0016	0.416 ± 0.032	0.461 ± 0.012	0.385 ± 0.023	0.333 ± 0.019	0.416 ± 0.0093	0.412 ± 0.025
VVVFGWIGYLYL	0.366 ± 0.028	0.499 ± 0.05	0.311 ± 0.044	0.511 ± 0.021	0.282 ± 0.019	0.288 ± 0.044	0.482 ± 0.062	0.327 ± 0.071
VVVHFVLVCSTS	0.0899 ± 0.0074	0.237 ± 0.057	0.141 ± 0.026	0.284 ± 0.0084	0.116 ± 0.011	0.13 ± 0.024	0.271 ± 0.014	0.289 ± 0.038
VWFLLFVVWCGS	0.212 ± 0.01	0.282 ± 0.024	0.217 ± 0.022	0.384 ± 0.0055	0.186 ± 0.021	0.204 ± 0.034	0.316 ± 0.0071	0.309 ± 0.031
VWLAWCIVGGLG	0.472 ± 0.0083	0.5494 ± 0.0026	0.386 ± 0.024	0.5441 ± 0.0026	0.352 ± 0.015	0.369 ± 0.028	0.523 ± 0.0062	0.428 ± 0.03
VWVAWLGGAILA	0.149 ± 0.021	0.188 ± 0.012	0.2 ± 0.029	0.29 ± 0.0052	0.174 ± 0.024	0.194 ± 0.022	0.272 ± 0.0045	0.267 ± 0.021
VYCCVRSLRVAI	0.553 ± 0.0082	0.677 ± 0.047	0.471 ± 0.035	0.6347 ± 0.0019	0.395 ± 0.022	0.428 ± 0.023	0.5746 ± 0.0014	0.496 ± 0.0097
VYVRYYVRVVVI	0.0256 ± 0.0012	0.0406 ± 0.00046	0.0781 ± 0.04	0.167 ± 0.024	0.0369 ± 0.0049	0.046 ± 0.016	0.0659 ± 0.0096	0.115 ± 0.012
WCFFFVGCCCFG	0.557 ± 0.044	0.59 ± 0.03	0.462 ± 0.034	0.5249 ± 0.004	0.479 ± 0.0084	0.481 ± 0.031	0.537 ± 0.013	0.479 ± 0.0056
